# Data taken from US20150329594A1 (University of California, published 2015).
# Bridge positions count the residues as written; N and C are the ends. Square brackets hold non-standard residues; d marks the D form. Nal = 1-naphthylalanine or 2-naphthylalanine; Trp(1-Me) = Cn1cc(C[C@H](N)C(=O)O)c2ccccc21; Aal = not defined here; Sea = not defined here
# B1: Peptide VIII, Ac-SS-RCVme…-NH2 (peptide)
# peptide: Ac-SSRCV[Trp(1-Me)]QDWGAHRCT-NH2
# modifications: disulfide 4-14
# SMILES: CC(=O)N[C@@H](CO)C(=O)N[C@@H](CO)C(=O)N[C@@H](CCCNC(=N)N)C(=O)N[C@H]1CSSC[C@@H](C(=O)N[C@H](C(N)=O)[C@@H](C)O)NC(=O)[C@H](CCCNC(=N)N)NC(=O)[C@H](Cc2c[nH]cn2)NC(=O)[C@H](C)NC(=O)CNC(=O)[C@H](Cc2c[nH]c3ccccc23)NC(=O)[C@H](CC(=O)O)NC(=O)[C@H](CCC(N)=O)NC(=O)[C@H](Cc2cn(C)c3ccccc23)NC(=O)[C@H](C(C)C)NC1=O
# B2: Peptide V, Ac-WW-RCVWQDWGAHRCT-NH2 (peptide)
# peptide: Ac-WWRCVWQDWGAHRCT-NH2
# modifications: disulfide 4-14
# SMILES: CC(=O)N[C@@H](Cc1c[nH]c2ccccc12)C(=O)N[C@@H](Cc1c[nH]c2ccccc12)C(=O)N[C@@H](CCCNC(=N)N)C(=O)N[C@H]1CSSC[C@@H](C(=O)N[C@H](C(N)=O)[C@@H](C)O)NC(=O)[C@H](CCCNC(=N)N)NC(=O)[C@H](Cc2c[nH]cn2)NC(=O)[C@H](C)NC(=O)CNC(=O)[C@H](Cc2c[nH]c3ccccc23)NC(=O)[C@H](CC(=O)O)NC(=O)[C@H](CCC(N)=O)NC(=O)[C@H](Cc2c[nH]c3ccccc23)NC(=O)[C@H](C(C)C)NC1=O
# B3: Peptide VII, Ac-RS-RCVme…-NH2 (peptide)
# peptide: Ac-RSRCV[Trp(1-Me)]QDWGAHRCT-NH2
# modifications: disulfide 4-14
# SMILES: CC(=O)N[C@@H](CCCNC(=N)N)C(=O)N[C@@H](CO)C(=O)N[C@@H](CCCNC(=N)N)C(=O)N[C@H]1CSSC[C@@H](C(=O)N[C@H](C(N)=O)[C@@H](C)O)NC(=O)[C@H](CCCNC(=N)N)NC(=O)[C@H](Cc2c[nH]cn2)NC(=O)[C@H](C)NC(=O)CNC(=O)[C@H](Cc2c[nH]c3ccccc23)NC(=O)[C@H](CC(=O)O)NC(=O)[C@H](CCC(N)=O)NC(=O)[C@H](Cc2cn(C)c3ccccc23)NC(=O)[C@H](C(C)C)NC1=O
# B4: Peptide II, Ac-me…-NH2 (peptide)
# peptide: Ac-[Trp(1-Me)]CVWQDWGAHRCT-NH2
# modifications: disulfide 2-12
# B5: Peptide IV, Ac-SS-ICVWQDWGAHRCT-NH2 (peptide)
# peptide: Ac-SSICVWQDWGAHRCT-NH2
# modifications: disulfide 4-14
# SMILES: CC[C@H](C)[C@H](NC(=O)[C@H](CO)NC(=O)[C@H](CO)NC(C)=O)C(=O)N[C@H]1CSSC[C@@H](C(=O)N[C@H](C(N)=O)[C@@H](C)O)NC(=O)[C@H](CCCNC(=N)N)NC(=O)[C@H](Cc2c[nH]cn2)NC(=O)[C@H](C)NC(=O)CNC(=O)[C@H](Cc2c[nH]c3ccccc23)NC(=O)[C@H](CC(=O)O)NC(=O)[C@H](CCC(N)=O)NC(=O)[C@H](Cc2c[nH]c3ccccc23)NC(=O)[C@H](C(C)C)NC1=O
# B6: Peptide 4.2, Ac-NN-LCVWQDWG{Nal}HRCT-NH2 (peptide)
# peptide: Ac-NNLCVWQDWG[Nal]HRCT-NH2
# modifications: disulfide 4-14; not fully specified; printed as Ac-NN-LCVWQDWG{Nal}HRCT-NH2
# B7: Peptide 2.1, Ac-ICVmeWQDWG{Nal}HRCT-NH2 (peptide)
# peptide: Ac-ICV[Trp(1-Me)]QDWG[Nal]HRCT-NH2
# modifications: disulfide 2-12; not fully specified; printed as Ac-ICV{meW}QDWG{Nal}HRCT-NH2
# B8: Peptide 4.3, Ac-NR-LCVWQDWG{Nal}HRCT-NH2 (peptide)
# peptide: Ac-NRLCVWQDWG[Nal]HRCT-NH2
# modifications: disulfide 4-14; not fully specified; printed as Ac-NR-LCVWQDWG{Nal}HRCT-NH2
# B9: Peptide 2.4, Ac-ICVWQDWG{Aal}HRCT-NH2 (peptide)
# peptide: Ac-ICVWQDWG[Aal]HRCT-NH2
# modifications: disulfide 2-12; reading uncertain; also: printed as Ac-ICVWQDWG{Aal}HRCT-NH2
# B10: Peptide 3.1, Ac-ER-ICVWQDWGAHRCT-NH2 (peptide)
# peptide: Ac-ERICVWQDWGAHRCT-NH2
# modifications: disulfide 4-14
# SMILES: CC[C@H](C)[C@H](NC(=O)[C@H](CCCNC(=N)N)NC(=O)[C@H](CCC(=O)O)NC(C)=O)C(=O)N[C@H]1CSSC[C@@H](C(=O)N[C@H](C(N)=O)[C@@H](C)O)NC(=O)[C@H](CCCNC(=N)N)NC(=O)[C@H](Cc2c[nH]cn2)NC(=O)[C@H](C)NC(=O)CNC(=O)[C@H](Cc2c[nH]c3ccccc23)NC(=O)[C@H](CC(=O)O)NC(=O)[C@H](CCC(N)=O)NC(=O)[C@H](Cc2c[nH]c3ccccc23)NC(=O)[C@H](C(C)C)NC1=O
# B11: Peptide 3.3, Ac-NR-LCVWQDWGAHRCT-NH2 (peptide)
# peptide: Ac-NRLCVWQDWGAHRCT-NH2
# modifications: disulfide 4-14
# SMILES: CC(=O)N[C@@H](CC(N)=O)C(=O)N[C@@H](CCCNC(=N)N)C(=O)N[C@@H](CC(C)C)C(=O)N[C@H]1CSSC[C@@H](C(=O)N[C@H](C(N)=O)[C@@H](C)O)NC(=O)[C@H](CCCNC(=N)N)NC(=O)[C@H](Cc2c[nH]cn2)NC(=O)[C@H](C)NC(=O)CNC(=O)[C@H](Cc2c[nH]c3ccccc23)NC(=O)[C@H](CC(=O)O)NC(=O)[C@H](CCC(N)=O)NC(=O)[C@H](Cc2c[nH]c3ccccc23)NC(=O)[C@H](C(C)C)NC1=O
# B12: Peptide 2.5, Ac-ICVWQDWG{Sea}HRCT-NH2 (peptide)
# peptide: Ac-ICVWQDWG[Sea]HRCT-NH2
# modifications: disulfide 2-12; reading uncertain; also: printed as Ac-ICVWQDWG{Sea}HRCT-NH2
# B13: Peptide 4.1, Ac-ER-ICVWQDWG{Nal}HRCT-NH2 (peptide)
# peptide: Ac-ERICVWQDWG[Nal]HRCT-NH2
# modifications: disulfide 4-14; not fully specified; printed as Ac-ER-ICVWQDWG{Nal}HRCT-NH2
# B14: Peptide 2.2, Ac-ICVWQDWG{Nal}HRCT-NH2 (peptide)
# peptide: Ac-ICVWQDWG[Nal]HRCT-NH2
# modifications: disulfide 2-12; not fully specified; printed as Ac-ICVWQDWG{Nal}HRCT-NH2
# B15: Peptide 4.7, Ac-NR-LCV{Nal}QDWG{Nal}HRCT-NH2 (peptide)
# peptide: Ac-NRLCV[Nal]QDWG[Nal]HRCT-NH2
# modifications: disulfide 4-14; not fully specified; printed as Ac-NRLCV{Nal}QDWG{Nal}HRCT-NH2
# B16: Peptide 4.5, Ac-ER-ICV{Nal}QDWG{Nal}HRCT-NH2 (peptide)
# peptide: Ac-ERICV[Nal]QDWG[Nal]HRCT-NH2
# modifications: disulfide 4-14; not fully specified; printed as Ac-ERICV{Nal}QDWG{Nal}HRCT-NH2
# B17: Peptide 3.2, Ac-NN-LCVWQDWGAHRCT-NH2 (peptide)
# peptide: Ac-NNLCVWQDWGAHRCT-NH2
# modifications: disulfide 4-14
# SMILES: CC(=O)N[C@@H](CC(N)=O)C(=O)N[C@@H](CC(N)=O)C(=O)N[C@@H](CC(C)C)C(=O)N[C@H]1CSSC[C@@H](C(=O)N[C@H](C(N)=O)[C@@H](C)O)NC(=O)[C@H](CCCNC(=N)N)NC(=O)[C@H](Cc2c[nH]cn2)NC(=O)[C@H](C)NC(=O)CNC(=O)[C@H](Cc2c[nH]c3ccccc23)NC(=O)[C@H](CC(=O)O)NC(=O)[C@H](CCC(N)=O)NC(=O)[C@H](Cc2c[nH]c3ccccc23)NC(=O)[C@H](C(C)C)NC1=O
# B18: Peptide 4.4, Ac-RS-ICVWQDWG{Nal}HRCT-NH2 (peptide)
# peptide: Ac-RSICVWQDWG[Nal]HRCT-NH2
# modifications: disulfide 4-14; not fully specified; printed as Ac-RS-ICVWQDWG{Nal}HRCT-NH2
# B19: Peptide 4.6, Ac-NN-LCV{Nal}QDWG{Nal}HRCT-NH2 (peptide)
# peptide: Ac-NNLCV[Nal]QDWG[Nal]HRCT-NH2
# modifications: disulfide 4-14; not fully specified; printed as Ac-NNLCV{Nal}QDWG{Nal}HRCT-NH2
# B20: Peptide 4.8, Ac-RS-ICV{Nal}QDWG{Nal}HRCT-NH2 (peptide)
# peptide: Ac-RSICV[Nal]QDWG[Nal]HRCT-NH2
# modifications: disulfide 4-14; not fully specified; printed as Ac-RSICV{Nal}QDWG{Nal}HRCT-NH2
# B21: Peptide 3.4, Ac-RS-ICVWQDWGAHRCT-NH2 (peptide)
# peptide: Ac-RSICVWQDWGAHRCT-NH2
# modifications: disulfide 4-14
# Target: T1, human complement protein C3 (human, UniProt P01024 23-1663)
# T1 sequence (P01024 23-1663 limits assumed): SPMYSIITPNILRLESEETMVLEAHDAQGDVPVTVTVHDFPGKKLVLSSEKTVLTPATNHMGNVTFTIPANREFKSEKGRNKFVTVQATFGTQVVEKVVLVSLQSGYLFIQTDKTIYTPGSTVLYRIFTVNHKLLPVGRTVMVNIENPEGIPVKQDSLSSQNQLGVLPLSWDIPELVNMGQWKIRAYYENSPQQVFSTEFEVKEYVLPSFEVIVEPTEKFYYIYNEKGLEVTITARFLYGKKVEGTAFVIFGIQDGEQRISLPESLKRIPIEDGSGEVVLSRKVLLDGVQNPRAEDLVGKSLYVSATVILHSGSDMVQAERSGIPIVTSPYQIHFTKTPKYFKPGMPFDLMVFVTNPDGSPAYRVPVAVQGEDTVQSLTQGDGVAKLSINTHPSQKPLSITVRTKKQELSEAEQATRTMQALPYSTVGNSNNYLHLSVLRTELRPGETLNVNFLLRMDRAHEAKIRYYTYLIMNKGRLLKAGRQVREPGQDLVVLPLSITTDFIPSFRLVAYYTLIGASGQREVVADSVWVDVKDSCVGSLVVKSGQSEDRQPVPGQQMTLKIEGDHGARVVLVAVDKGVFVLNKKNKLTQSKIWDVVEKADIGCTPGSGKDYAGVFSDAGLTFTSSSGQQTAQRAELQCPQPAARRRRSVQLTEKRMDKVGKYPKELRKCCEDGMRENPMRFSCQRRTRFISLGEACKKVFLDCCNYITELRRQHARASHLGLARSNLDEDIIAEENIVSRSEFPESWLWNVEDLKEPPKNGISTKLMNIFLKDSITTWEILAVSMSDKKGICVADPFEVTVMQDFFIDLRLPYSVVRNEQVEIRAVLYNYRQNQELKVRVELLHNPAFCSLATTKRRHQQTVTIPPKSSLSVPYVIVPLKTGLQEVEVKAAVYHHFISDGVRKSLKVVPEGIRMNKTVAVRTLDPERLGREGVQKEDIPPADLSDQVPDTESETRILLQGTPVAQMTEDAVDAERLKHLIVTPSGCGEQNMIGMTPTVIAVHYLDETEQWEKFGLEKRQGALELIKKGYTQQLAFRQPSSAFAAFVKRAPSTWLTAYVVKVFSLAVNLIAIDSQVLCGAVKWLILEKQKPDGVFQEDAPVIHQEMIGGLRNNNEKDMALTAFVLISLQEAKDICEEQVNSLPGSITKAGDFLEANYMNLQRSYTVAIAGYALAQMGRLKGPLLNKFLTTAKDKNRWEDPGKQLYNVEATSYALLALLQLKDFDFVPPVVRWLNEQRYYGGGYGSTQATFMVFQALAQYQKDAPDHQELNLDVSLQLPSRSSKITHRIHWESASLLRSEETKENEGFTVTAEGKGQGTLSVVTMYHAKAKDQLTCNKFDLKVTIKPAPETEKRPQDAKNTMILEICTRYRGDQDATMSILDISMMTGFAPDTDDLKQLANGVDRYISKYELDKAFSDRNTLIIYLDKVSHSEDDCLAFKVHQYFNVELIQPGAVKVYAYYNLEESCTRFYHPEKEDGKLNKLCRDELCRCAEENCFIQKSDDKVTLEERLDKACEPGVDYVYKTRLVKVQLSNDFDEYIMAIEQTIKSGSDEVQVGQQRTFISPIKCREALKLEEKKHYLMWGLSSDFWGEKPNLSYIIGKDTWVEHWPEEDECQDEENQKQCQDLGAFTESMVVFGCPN
# Test: cell-based or functional assay
row,Binder,IC50 (assay not named in Table 7; preliminary C3b ELISA by paragraph 235) [nM]
1,B1,420000
2,B2,460000
3,B3,470000
4,B4,240000
5,B5,330000

# Target: T1, human complement protein C3
# Test: cell-based or functional assay
# Remark: another data set of the same source
Binder,C3b ELISA IC50 [nM],C5b-9 ELISA IC50 [nM],Lysis IC50 [nM]
B6,2900,1900,2100
B7,1400,900,900
B8,2000,1200,1200
B9,900,800,700
B10,900,500,900
B11,600,500,300
B12,600,700,500
B13,3000,1800,2300
B14,2400,2000,1400
B15,2300,1400,1300
B16,3800,2400,3000
B17,600,500,300
B18,3100,2000,1800
B19,3900,2300,2200
B20,4100,2400,2800
B21,700,600,300
